Data reported in patent US20170119854A1, “HIGHLY CONCENTRATED DRUG PARTICLES, FORMULATIONS, SUSPENSIONS AND USES THEREOF” (Intarcia Therapeutics, Inc., priority 2008, published 2017).

Assay: In vitro release rate from implantable osmotic delivery device (RP-HPLC)
Assay type: physicochemical
Details: 37° C., out to 100 days
Experimental: For each study, a drug reservoir of an implantable osmotic delivery device was filled with 160 μl of one of the suspension formulations described in Example 2. The membrane ends of the osmotic pumps were placed into stoppered glass vials filled with 3 ml phosphate buffer solution (PBS), and the diffusion moderator ends of the osmotic pumps were placed into glass vials filled with 2.5 to 3 ml release rate medium (citrate buffer solution at pH 6.0 with 0.14 M NaCl and 0.2% sodium azide).
Each system was placed into a capped test tube, with the diffusion moderator side down, and partially immersed in a 37° C. water bath. At specified time points, the glass vials at the diffusion moderator ends were replaced with new glass vials filled with 2.5 to 3 ml release rate medium (citrate buffer solution at pH 6.0 with 0.14 M NaCl and 0.2% sodium azide). Samples were collected from the diffusion moderator ends of the osmotic pumps and analyzed using RP-HPLC.

omega interferon showed an approximate release rate of ~50 µg/day.
